Measured values from article PMC7430664, “Yeast pentatricopeptide protein Dmr1 (Ccm1) binds a repetitive AU-rich motif in the small subunit mitochondrial ribosomal RNA”.

What was measured:
[1] = target: T1, Dmr1p (Ccm1p), tag removed (Saccharomyces cerevisiae, UniProt P48237 27-864); assay: EMSA; 0.2 ug tRNA; EMSA as in Puchta et al. 2010 (buffer not restated), 15 uL, up to 0.8 ug Dmr1p, BSA to constant protein, 0.2 ug tRNA; PNPase protection: 20 mM Tris-HCl pH 8.0; conditions: protein: recombinant; tags: none after TEV cleavage (from Dmr1-MBP-His6); label: 32P-UTP
T1 sequence: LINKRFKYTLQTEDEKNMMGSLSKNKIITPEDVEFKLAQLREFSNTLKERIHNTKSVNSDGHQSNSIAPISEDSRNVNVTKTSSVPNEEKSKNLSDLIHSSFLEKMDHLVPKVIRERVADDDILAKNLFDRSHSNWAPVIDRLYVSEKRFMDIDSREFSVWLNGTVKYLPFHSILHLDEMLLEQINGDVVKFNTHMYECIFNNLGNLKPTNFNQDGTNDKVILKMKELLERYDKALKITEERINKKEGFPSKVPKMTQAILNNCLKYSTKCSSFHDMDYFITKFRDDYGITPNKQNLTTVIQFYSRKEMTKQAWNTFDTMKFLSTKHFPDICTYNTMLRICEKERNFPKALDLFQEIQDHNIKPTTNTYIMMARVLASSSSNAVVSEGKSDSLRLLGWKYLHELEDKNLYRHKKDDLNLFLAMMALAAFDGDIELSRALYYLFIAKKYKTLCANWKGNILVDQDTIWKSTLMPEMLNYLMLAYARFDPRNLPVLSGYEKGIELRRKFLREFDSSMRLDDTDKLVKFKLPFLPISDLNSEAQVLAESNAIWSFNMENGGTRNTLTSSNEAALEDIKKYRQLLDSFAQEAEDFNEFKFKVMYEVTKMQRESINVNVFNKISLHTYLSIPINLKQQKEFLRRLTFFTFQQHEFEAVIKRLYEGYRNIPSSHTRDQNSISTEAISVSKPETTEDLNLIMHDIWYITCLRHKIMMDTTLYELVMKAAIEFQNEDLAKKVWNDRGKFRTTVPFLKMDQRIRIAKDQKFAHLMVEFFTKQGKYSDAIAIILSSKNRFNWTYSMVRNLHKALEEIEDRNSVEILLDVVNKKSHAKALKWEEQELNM

Dmr1-His6 [2] = target: T2, Dmr1-His6 (Saccharomyces cerevisiae, UniProt P48237 27-864); assay: nuclease protection; PNPase, 2 mM MgCl2; not protected; EMSA as in Puchta et al. 2010 (buffer not restated), 15 uL, up to 0.8 ug Dmr1p, BSA to constant protein, 0.2 ug tRNA; PNPase protection: 20 mM Tris-HCl pH 8.0; conditions: protein: recombinant; tags: His6 (pET28a); label: 32P-UTP
T2 sequence: T1 sequence

Dmr1-His6 [3] = target: T2, Dmr1-His6; assay: nuclease protection; Terminator 5'-3' exonuclease, 2 mM MgCl2; partial; text calls it the 24 nt fragment, legend 15_14; EMSA as in Puchta et al. 2010 (buffer not restated), 15 uL, up to 0.8 ug Dmr1p, BSA to constant protein, 0.2 ug tRNA; PNPase protection: 20 mM Tris-HCl pH 8.0; conditions: protein: recombinant; tags: His6 (pET28a); label: 32P-UTP
Dmr1-His6 [4] = target: T2, Dmr1-His6; assay: footprinting; Dis3p 3'-5' exoribonuclease, 2 mM MgCl2; stop 3-5 nt downstream of (AUA)4AU; EMSA as in Puchta et al. 2010 (buffer not restated), 15 uL, up to 0.8 ug Dmr1p, BSA to constant protein, 0.2 ug tRNA; PNPase protection: 20 mM Tris-HCl pH 8.0; conditions: protein: recombinant; tags: His6 (pET28a); label: 32P-UTP
[5] = target: T1, Dmr1p (Ccm1p), tag removed; assay: EMSA; 0.2 ug tRNA; strong; EMSA as in Puchta et al. 2010 (buffer not restated), 15 uL, up to 0.8 ug Dmr1p, BSA to constant protein, 0.2 ug tRNA; PNPase protection: 20 mM Tris-HCl pH 8.0; conditions: protein: recombinant; tags: none after TEV cleavage (from Dmr1-MBP-His6); label: 32P-UTP
Dmr1-His6 [6] = target: T2, Dmr1-His6; assay: nuclease protection; PNPase, 2 mM MgCl2; complete protection, from 0.1 ug protein; EMSA as in Puchta et al. 2010 (buffer not restated), 15 uL, up to 0.8 ug Dmr1p, BSA to constant protein, 0.2 ug tRNA; PNPase protection: 20 mM Tris-HCl pH 8.0; conditions: protein: recombinant; tags: His6 (pET28a); label: 32P-UTP

GGAUAAUAAUAAUAAU (ssRNA) [15_14]: binds [1].

GGAAAAGGAUAUAUAUAUAAUAUAUA (ssRNA) [N_24]: no binding [1]; no binding (Dmr1-His6 [2]).

GGUAUAUAUAUAAUAU (ssRNA) [N_14]: no binding [1].

GGAUAAUAAUAAUAAU (ssRNA, 5' monophosphate (polyphosphatase treated)) [15_14 5'-monophosphate]: binds (Dmr1-His6 [3]).

GGAAAGAUGAAAUAAUAAUAAUAAUUAUAAGACUAAU (ssRNA) [15_35]: binds (Dmr1-His6 [4]).

GGAAAUAAUAAUAAUAAUUAUAAGAC (ssRNA) [15_24]: binds [1].

GGUUAUAAUAAUAAUAAUAAUAAUAU (ssRNA) [20_24]: binds [5]; binds (Dmr1-His6 [6]).
